T1: IFF05588
T1 chain: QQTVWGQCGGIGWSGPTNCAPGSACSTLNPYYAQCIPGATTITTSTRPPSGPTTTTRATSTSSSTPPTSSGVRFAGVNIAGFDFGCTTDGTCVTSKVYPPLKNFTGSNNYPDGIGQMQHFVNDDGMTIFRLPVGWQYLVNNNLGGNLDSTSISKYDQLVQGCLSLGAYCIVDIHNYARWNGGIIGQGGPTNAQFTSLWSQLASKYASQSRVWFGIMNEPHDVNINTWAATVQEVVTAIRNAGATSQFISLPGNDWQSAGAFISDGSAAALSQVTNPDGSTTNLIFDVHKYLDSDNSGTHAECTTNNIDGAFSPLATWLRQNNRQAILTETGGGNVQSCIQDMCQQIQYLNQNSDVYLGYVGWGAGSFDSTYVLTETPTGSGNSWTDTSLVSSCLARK

B1: IFF21364 (protein)
chain: QLDKPALTDNLDYLLDGNVANLPSNGGPYWGKWEDGLIPADCKSIAESQGLNPTDFEVYDIFFDDCQDGWSFCRHKDSSDSFETLVDTFGRVPVRMRSWVRHILTIPGNNWAFNSNGNIAFSGTTSSNLDVALHETGHSLDLLGAYGDGALSSSQEWEDAYNADSNVPDNYAQSNQVENVAQNTVVGIYDKVVPGGFPGVQPNYANIQNQYTLLQDKAGEQIIPGGTCDRHLENSDTVSMSGSSSKRDVRAAKARAASHDSALKGKYSNIVKDFKPFNSQDFHH
B2: IFF21365 (protein)
chain: DDTLSKPALTDNLDYLLDGNVASLPSNGGPYWGKWEDGLMPADCKSIAEDQGLNPTDFEVWDIFFDDCQDGWSFCRHKDSADSFETLVDTFGRVPVRMRSWVRHVLTIPGDNWAFNSNGNICFSGTTSQNLDVALHETGHSLDLLGAYGDGALSSSQEWLDAYNADSNVPDNYARSNQVENVAQNTVVAVYDKNVPGGFPGVQTDYAKIQNQYTLVEDKAGDQIVPGGTCDRHLENSETVPMSGSSAKRDIRIKGRAVGAGAVTHDWKFKGTYSNIVTDFEPFNSKDFHH
B3: IFF21340 (protein)
chain: NLNKPVITPNFPGNGLASLGPGLMNNLAPTHSTWDDWGAGWIPADCKSMVQGAGFSPNDIIPFNIHYDDCAQSWTFCRHKNSPLSEIQILDIFGRLPVRMRQFVRHLVFVPGNKSAGSNGDNVLMVGDVDVTVFAHEIGHSLDSHAFDPSYGVPFSTGNVWVSNYNLDSAVPDPYAQSSQQENFAQQTVVSIYDKVVPGGIGTIQPNWQAIFHQYATLEGYIGNVIIPGGTCTHRLTDSAPVTMSGSKKSRRALGPKPKVSLSPKVKEIEAIPMESSITMTSFDEHGKPNGTYVVHL
B4: IFF21336 (protein)
chain: B3 chain with P21Q, N25D, N26H, A44Q, S73T
B5: IFF21367 (protein)
chain: QNLNKPVLFTDGLSPHVDSVFFQHLTPTQSTWDQWGWGWIPQACLSVVQGTQFSPYDIEVYNVHYTDCASAVVMCRHNQAQMSIINMIDAFGRVPIHDRQWTQHILALPASSCSAGTGGAVTTFYGPCYIPSVFVHELTHTLDAYVNDQTGSTGSVHVYSTTSSYLNSVNQDSCVPDGYANTSPQEDYAQTSVLALYEKVNPGGLDPIGNWRCLVNAKNNLDSIIGQELTPGGSCTHRWADSAIVCMGPAAGCASSKRGFSTRRGARVAGPKPEPANKKGDPLVSNLTPDLTSAVNAKIDDFSHLVSNHTASIEATIRINAWNKAAGKKTVPVPTA
B6: IFF21363 (protein)
chain: QLDKPVIDPEFPSGALDQGLNDHLRAPGSSWDAWEEGWIPEDCKNMIEGTEFSVQDITPFNIHYDDCEDPWVFCRHKDSPLSEDYIVDAFGKMPVRFRSFVRHMLFVPGTESAGSSGDNVQMNGDLPITVFIHETAHSFDGHHGLPDIEGGFSASQAWLDAYNADSAVTDDYGQTSQAENFAQQTVVALFDSNVPDGVASIQPSWQSIENQFRLIQDRAADILRPDGTCTSRLENSAPVEKGGSARLRPSASTKPDVSLKGKIKVIEPVPMGAEMEMAQYDASGKVVGTKVVKVGGRE
B7: IFF21335 (protein)
chain: TLDKPVIQPNFPGNGLASLGQGLLDNLAPTHSTWDDWGAGWIPQDCKTLVEGAGFSASDVIPFNIHYDDCAQTWTFCRHKDSPLSEVQILDLFGRLPVRMRSFVRHLVFIPGNKSAGSSGDNVLMTGPVDITVYAHEIGHSLDSHAFDPSYGVPFSTGNVWISNYNLDSAVTDPYAQTSQQENFAQETVVSLYDKVVPGGIGTIQSNWQAIFHQYATLEGYIGDVIIPGGTCTHRLTDSPAVPMSGSAKLRRGLGPKPHVALSPEVEEIEAIPMKSSITMTSFDEAGKPNGTYVINL
B8: IFF21380 (protein)
chain: QQLDKPALTNDLDYLLEGNVNNLPSNGGPYWGKWEAGLMPADCKSIAESQDLDPTDFEVWDIFFDDCQDGWSFCRHVDSADSFETLVDTFGRIPVRMRSWIRHILTIPGDNWAFNSNGNIAFSGTTSANLDVALHETGHSLDLLGAYGSEALSSTQEWLDAYDADSNVPDNYARSNQVENVAQNTVVGIYDKVVPGGFPGVQPNYQNIENQYTLLQDKAGDQIIPGGTCDRHLENSETVSASGSSKKARDSVNKKSRAVAHDPAFKGTYTNIVKDFVPFNTQDYHH
B9: IFF21331 (protein)
chain: ALDKPIIDPEFPGGGLASLGQGLLDNLAPTQSTYADWEAGFIPQDCKTIAEGNSLSPLDIIPFNITYTDCSDPWIFCRHKDSPLSEVDMIDLFGRMPVGMRSFIRHIISIPGDKSAGSNGDNVQMNGDVDITVFIHETGHSLDSHGFDASYGVPFSTGQVWTDNYNLDSAVTDSYAQSSQQENFAQETVVALYDKVVPGGVGTIQPNWQAIQHQYETIQGYAGGIIIPGGTCTNRLPNSPAVPMSDSAKYRVNMAHKPDVSLSNYVTEIKSIPMEPIMKLTHYDAAGRPIGKSTIDLST
B10: IFF21378 (protein)
chain: LDKPALTPDLDYLLDGNTANLPQNGGAHWGKWEDGLMPEDCKSIAEGQDLNPADFEVYDVFYDDCQDAWSFCRHKDSPEDLETLVNTFGRVPVRMRSWVRHVLSIPGNNWAFNSNGNIALSGTTTHNLDVCLHETGHSLDLLGAYVDGALSSTQEWEDAYNKDSAVPDNYARTNQVENVAQNTVVGIYDKVVPGGFPGVQSESQKIENQYKLLQDKAGEQILPGGTCDRHLQNSATVSIKSSSKRENKVVKAREAHDSALKGTYTNIVKEFTPFNTKDFHEEH

Residue numbers refer to the chain shown, from its start.

The target of this data set is T1, IFF05588.
With B1, the Relative late peak area (centered, scaled, averaged over 5, 10 and 15 min) was -0.57; the Relative late peak area (centered, scaled, averaged over doses, 24 h; sample diluted 2-fold) was -0.28; the Relative late peak area (reverse phase chromatography, 24 h) was 0.49.
For the protein B2, the Relative late peak area (centered, scaled, averaged over 5, 10 and 15 min) was found to be 1.04; the Relative late peak area (centered, scaled, averaged over doses, 24 h; sample diluted 10-fold) stood at 0.38; the Relative late peak area (reverse phase chromatography, 24 h) was found to be 0.61.
As to B3, the Relative late peak area (centered, scaled, averaged over 5, 10 and 15 min) is -0.31; the Relative late peak area (centered, scaled, averaged over doses, 24 h; sample diluted 2-fold) worked out at 0.37; the Relative late peak area (reverse phase chromatography, 24 h) amounted to 0.33.
With B4, the Relative late peak area (centered, scaled, averaged over 5, 10 and 15 min) is -0.34; the Relative late peak area (centered, scaled, averaged over doses, 24 h; sample diluted 2-fold) was 0.36.
With B5, the Relative late peak area (centered, scaled, averaged over 5, 10 and 15 min) is -0.67; the Relative late peak area (centered, scaled, averaged over doses, 24 h; sample diluted 1-fold) was found to be 0.19.
Consider B6, for which the Relative late peak area (centered, scaled, averaged over 5, 10 and 15 min) is -0.43; the Relative late peak area (centered, scaled, averaged over doses, 24 h; sample diluted 2-fold) was -0.13; the Relative late peak area (reverse phase chromatography, 24 h) is 0.3.
B7: the Relative late peak area (centered, scaled, averaged over 5, 10 and 15 min) is 0.67; the Relative late peak area (centered, scaled, averaged over doses, 24 h; sample diluted 10-fold) was 0.3; the Relative late peak area (reverse phase chromatography, 24 h) worked out at 0.66.
As to B8, the Relative late peak area (centered, scaled, averaged over 5, 10 and 15 min) is -0.71; the Relative late peak area (centered, scaled, averaged over doses, 24 h; sample diluted 1-fold) was -0.02; the Relative late peak area (reverse phase chromatography, 24 h) worked out at 0.61.
With B9, the Relative late peak area (centered, scaled, averaged over 5, 10 and 15 min) was -0.86; the Relative late peak area (centered, scaled, averaged over doses, 24 h; sample diluted 1-fold) is -0.21.
Turning to B10, the Relative late peak area (centered, scaled, averaged over 5, 10 and 15 min) is -0.6; the Relative late peak area (centered, scaled, averaged over doses, 24 h; sample diluted 1-fold) worked out at 0.1; the Relative late peak area (reverse phase chromatography, 24 h) worked out at 0.52.

Values taken from patent US20250051821.
